The supplement of paper PMC5998384

Experiments:
HeLa Kyoto [1] = test: solubility in G1/S (NP-40 vs SDS abundance) (log2 ratio); higher = more soluble; details: cell cycle stage: G1/S
HeLa Kyoto [2] = test: melting temperature (median over replicates), in situ; higher = more thermally stable
HeLa Kyoto [3] = test: solubility change mitosis vs G1/S (difference of NP-40 vs SDS log2 ratios) (log2 ratio difference); higher = more soluble in mitosis
HeLa Kyoto [4] = test: thermal stability score vs G1/S (z-score of summed log2 fold changes over temperatures); higher = more thermally stable than in G1/S
[5] = cell cycle stage: early G1 (4.5 h after nocodazole release)
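Wherever melting temperature (median over replicates), in situ is given: HeLa Kyoto cells synchronized by double thymidine or nocodazole block, proteins quantified by TMT10plex mass spectrometry, three independent biological replicates.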
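Wherever solubility change mitosis vs G1/S (difference of NP-40 vs SDS log2 ratios) is given: synchronized HeLa Kyoto cells (double thymidine block for G1/S, nocodazole release for mitosis), protein amounts in NP-40 versus SDS lysates quantified by mass spectrometry, three biological replicates.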
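Wherever solubility in G1/S (NP-40 vs SDS abundance) is given: HeLa Kyoto cells arrested at G1/S by double thymidine block, proteins quantified by TMT10plex mass spectrometry in mild NP-40 versus SDS extracts, three biological replicates.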
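Wherever thermal stability score vs G1/S (z-score of summed log2 fold changes over temperatures) is given: synchronized HeLa Kyoto cells, proteins quantified by TMT10plex mass spectrometry, three biological replicates, mitosis taken 0.5 h after nocodazole release, G1/S directly after double thymidine block.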

Sequence	solubility in G1/S (log2) (HeLa Kyoto [1])	melting temperature (HeLa Kyoto [2]; cell cycle stage: G1/S) [°C]	melting temperature (HeLa Kyoto [2]; cell cycle stage: mitosis) [°C]	solubility change mitosis (log2) (HeLa Kyoto [3])	thermal stability score (HeLa Kyoto [4]; [5])	thermal stability score (HeLa Kyoto [4]; cell cycle stage: mitosis)
MAGTSAPGSKRRSEPPAPRPGPPPGTGHPPSKRARGFSAAAAPDPDDPFGAHGDFTADDLEELDTLASQALSQCPAAARDVSSDHKVHRLLDGMSKNPSGKNRETVPIKDNFELEVLQAQYKELKEKMKVMEEEVLIKNGEIKILRDSLHQTESVLEEQRRSHFLLEQEKTQALSDKEKEFSKKLQSLQSELQFKDAEMNELRTKLQTSERANKLAAPSVSHVSPRKNPSVVIKPEACSPQFGKTSFPTKESFSANMSLPHPCQTESGYKPLVGREDSKPHSLRGDSIKQEEAQKSFVDSWRQRSNTQGSILINLLLKQPLIPGSSLSLCHLLSSSSESPAGTPLQPPGFGSTLAGMSGLRTTGSYDGSFSLSALREAQNLAFTGLNLVARNECSRDGDPAEGGRRAFPLCQLPGAVHFLPLVQFFIGLHCQALQDLAAAKRSGAPGDSPTHSSCVSSGVETNPEDSVCILEGFSVTALSILQHLVCHSGAVVSLLLSGVGADSAAGEGNRSLVHRLSDGDMTSALRGVADDQGQHPLLKMLLHLLAFSSAATGHLQASVLTQCLKVLVKLAENTSCDFLPRFQCVFQVLPKCLSPETPLPSVLLAVELLSLLADHDQLAPQLCSHSEGCLLLLLYMYITSRPDRVALETQWLQLEQEVVWLLAKLGVQSPLPPVTGSNCQCNVEVVRALTVMLHRQWLTVRRAGGPPRTDQQRRTVRCLRDTVLLLHGLSQKDKLFMMHCVEVLHQFDQVMPGVSMLIRGLPDVTDCEEAALDDLCAAETDVEDPEVECG [ATRIP]	0.243	50.9	51.5	0.065	0.257	0.455
MAGAATQASLESAPRIMRLVAECSRSRARAGELWLPHGTVATPVFMPVGTQATMKGITTEQLDALGCRICLGNTYHLGLRPGPELIQKANGLHGFMNWPHNLLTDSGGFQMVSLVSLSEVTEEGVRFRSPYDGNETLLSPEKSVQIQNALGSDIIMQLDDVVSSTVTGPRVEEAMYRSIRWLDRCIAAHQRPDKQNLFAIIQGGLDADLRATCLEEMTKRDVPGFAIGGLSGGESKSQFWRMVALSTSRLPKDKPRYLMGVGYATDLVVCVALGCDMFDCVFPTRTARFGSALVPTGNLQLRKKVFEKDFGPIDPECTCPTCQKHSRAFLHALLHSDNTAALHHLTVHNIAYQLQLMSAVRTSIVEKRFPDFVRDFMGAMYGDPTLCPTWATDALASVGITLG [QTRT1]	0.174	55.6	54.9	-0.0923	1.96	0.0564
MLRAPGCLLRTSVAPAAALAAALLSSLARCSLLEPRDPVASSLSPYFGTKTRYEDVNPVLLSGPEAPWRDPELLEGTCTPVQLVALIRHGTRYPTVKQIRKLRQLHGLLQARGSRDGGASSTGSRDLGAALADWPLWYADWMDGQLVEKGRQDMRQLALRLASLFPALFSRENYGRLRLITSSKHRCMDSSAAFLQGLWQHYHPGLPPPDVADMEFGPPTVNDKLMRFFDHCEKFLTEVEKNATALYHVEAFKTGPEMQNILKKVAATLQVPVNDLNADLIQVAFFTCSFDLAIKGVKSPWCDVFDIDDAKVLEYLNDLKQYWKRGYGYTINSRSSCTLFQDIFQHLDKAVEQKQRSQPISSPVILQFGHAETLLPLLSLMGYFKDKEPLTAYNYKKQMHRKFRSGLIVPYASNLIFVLYHCENAKTPKEQFRVQMLLNEKVLPLAYSQETVSFYEDLKNHYKDILQSCQTSEECELARANSTSDEL [MINPP1]	0.459	54.4	55.7	-0.069	4.83	4.74
MVPGEENQLVPKEDVFWRCRQNIFDEMKKKFLQIENAAEEPRVLCIIQDTTNSKTVNERITLNLPASTPVRKLFEDVANKVGYINGTFDLVWGNGINTADMAPLDHTSDKSLLDANFEPGKKNFLHLTDKDGEQPQILLEDSSAGEDSVHDRFIGPLPREGSGGSTSDYVSQSYSYSSILNKSETGYVGLVNQAMTCYLNSLLQTLFMTPEFRNALYKWEFEESEEDPVTSIPYQLQRLFVLLQTSKKRAIETTDVTRSFGWDSSEAWQQHDVQELCRVMFDALEQKWKQTEQADLINELYQGKLKDYVRCLECGYEGWRIDTYLDIPLVIRPYGSSQAFASVEEALHAFIQPEILDGPNQYFCERCKKKCDARKGLRFLHFPYLLTLQLKRFDFDYTTMHRIKLNDRMTFPEELDMSTFIDVEDEKSPQTESCTDSGAENEGSCHSDQMSNDFSNDDGVDEGICLETNSGTEKISKSGLEKNSLIYELFSVMVHSGSAAGGHYYACIKSFSDEQWYSFNDQHVSRITQEDIKKTHGGSSGSRGYYSSAFASSTNAYMLIYRLKDPARNAKFLEVDEYPEHIKNLVQKERELEEQEKRQREIERNTCKIKLFCLHPTKQVMMENKLEVHKDKTLKEAVEMAYKMMDLEEVIPLDCCRLVKYDEFHDYLERSYEGEEDTPMGLLLGGVKSTYMFDLLLETRKPDQVFQSYKPGEVMVKVHVVDLKAESVAAPITVRAYLNQTVTEFKQLISKAIHLPAETMRIVLERCYNDLRLLSVSSKTLKAEGFFRSNKVFVESSETLDYQMAFADSHLWKLLDRHANTIRLFVLLPEQSPVSYSKRTAYQKAGGDSGNVDDDCERVKGPVGSLKSVEAILEESTEKLKSLSLQQQQDGDNGDSSKSTETSDFENIESPLNERDSSASVDNRELEQHIQTSDPENFQSEERSDSDVNNDRSTSSVDSDILSSSHSSDTLCNADNAQIPLANGLDSHSITSSRRTKANEGKKETWDTAEEDSGTDSEYDESGKSRGEMQYMYFKAEPYAADEGSGEGHKWLMVHVDKRITLAAFKQHLEPFVGVLSSHFKVFRVYASNQEFESVRLNETLSSFSDDNKITIRLGRALKKGEYRVKVYQLLVNEQEPCKFLLDAVFAKGMTVRQSKEELIPQLREQCGLELSIDRFRLRKKTWKNPGTVFLDYHIYEEDINISSNWEVFLEVLDGVEKMKSMSQLAVLSRRWKPSEMKLDPFQEVVLESSSVDELREKLSEISGIPLDDIEFAKGRGTFPCDISVLDIHQDLDWNPKVSTLNVWPLYICDDGAVIFYRDKTEELMELTDEQRNELMKKESSRLQKTGHRVTYSPRKEKALKIYLDGAPNKDLTQD [USP47]	-0.111	49.6	49.7	-0.168	0.111	0.427
MFSWLKRGGARGQQPEAIRTVTSALKELYRTKLLPLEEHYRFGAFHSPALEDADFDGKPMVLVAGQYSTGKTSFIQYLLEQEVPGSRVGPEPTTDCFVAVMHGDTEGTVPGNALVVDPDKPFRKLNPFGNTFLNRFMCAQLPNQVLESISIIDTPGILSGAKQRVSRGYDFPAVLRWFAERVDLIILLFDAHKLEISDEFSEAIGALRGHEDKIRVVLNKADMVETQQLMRVYGALMWALGKVVGTPEVLRVYIGSFWSQPLLVPDNRRLFELEEQDLFRDIQGLPRHAALRKLNDLVKRARLVRVHAYIISYLKKEMPSVFGKENKKKQLILKLPVIFAKIQLEHHISPGDFPDCQKMQELLMAHDFTKFHSLKPKLLEALDEMLTHDIAKLMPLLRQEELESTEVGVQGGAFEGTHMGPFVERGPDEAMEDGEEGSDDEAEWVVTKDKSKYDEIFYNLAPADGKLSGSKAKTWMVGTKLPNSVLGRIWKLSDVDRDGMLDDEEFALASHLIEAKLEGHGLPANLPRRLVPPSKRRHKGSAE [EHD2]	0.231	48.9	49.5	-0.164	1.58	2.05
